Patent US20110166208

Tested on: bacterially-expressed calmodulin (non-methylated)

Chain of Xenopus laevis calmodulin protein methyltransferase (chain, as listed by the source): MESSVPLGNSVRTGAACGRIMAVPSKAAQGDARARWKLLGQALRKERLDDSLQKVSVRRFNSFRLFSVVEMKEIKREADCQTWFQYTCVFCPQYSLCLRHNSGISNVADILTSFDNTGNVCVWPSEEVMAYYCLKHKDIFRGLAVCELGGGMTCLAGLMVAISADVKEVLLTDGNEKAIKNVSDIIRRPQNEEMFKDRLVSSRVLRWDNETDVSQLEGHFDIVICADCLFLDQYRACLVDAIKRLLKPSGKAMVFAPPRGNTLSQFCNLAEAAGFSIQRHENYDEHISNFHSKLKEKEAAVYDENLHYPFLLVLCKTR

| Substance | catalytic activity | incorporation of radiolabel from [3H-methyl]AdoMet into calmodulin (phosphorimage) | methyltransferase activity (in vitro) | specific activity |
| --- | --- | --- | --- | --- |
| Homo sapiens calmodulin protein methyltransferase (valine at 209, catalytically active form) | alteration of the sequence of the clone to correspond to the gene-predicted valine restored catalytic activity to amounts similar to those observed for other cloned calmodulin KMTs | the radiolabel from [^3H-methyl]AdoMet was incorporated into calmodulin, in the presence of the recombinant calmodulin methyltransferases obtained from SEQ ID NO: 1, 2, and 3 | Each of the proteins exhibited robust methyltransferase activity (in vitro) toward non-methylated forms of calmodulin | – |
| Rattus norvegicus calmodulin protein methyltransferase | – | the radiolabel from [^3H-methyl]AdoMet was incorporated into calmodulin, in the presence of the recombinant calmodulin methyltransferases obtained from SEQ ID NO: 1, 2, and 3 | Each of the proteins exhibited robust methyltransferase activity (in vitro) toward non-methylated forms of calmodulin | 56 nmoles min^-1 mg protein^-1 |
| Tribolium casteaneum calmodulin protein methyltransferase | – | – | Each of the proteins exhibited robust methyltransferase activity (in vitro) toward non-methylated forms of calmodulin | – |
| Arabidopsis thaliana calmodulin protein methyltransferase | – | – | Each of the proteins exhibited robust methyltransferase activity (in vitro) toward non-methylated forms of calmodulin | – |
| Xenopus laevis calmodulin protein methyltransferase | – | the radiolabel from [^3H-methyl]AdoMet was incorporated into calmodulin, in the presence of the recombinant calmodulin methyltransferases obtained from SEQ ID NO: 1, 2, and 3 | Each of the proteins exhibited robust methyltransferase activity (in vitro) toward non-methylated forms of calmodulin | – |
| Homo sapiens calmodulin protein methyltransferase, initially expressed clone with V209F (cDNA Accession BC 053733) | the initially expressed form of Hscalmodulin PKMT was catalytically inactive | – | – | – |
